From IntAct's records for PubMed 31515488

B1: E3 ubiquitin-protein ligase CBL-B (Homo sapiens), Q13191 (parent)
chain: MANSMNGRNPGGRGGNPRKGRILGIIDAIQDAVGPPKQAAADRRTVEKTWKLMDKVVRLCQNPKLQLKNSPPYILDILPDTYQHLRLILSKYDDNQKLAQLSENEYFKIYIDSLMKKSKRAIRLFKEGKERMYEEQSQDRRNLTKLSLIFSHMLAEIKAIFPNGQFQGDNFRITKADAAEFWRKFFGDKTIVPWKVFRQCLHEVHQISSGLEAMALKSTIDLTCNDYISVFEFDIFTRLFQPWGSILRNWNFLAVTHPGYMAFLTYDEVKARLQKYSTKPGSYIFRLSCTRLGQWAIGYVTGDGNILQTIPHNKPLFQALIDGSREGFYLYPDGRSYNPDLTGLCEPTPHDHIKVTQEQYELYCEMGSTFQLCKICAENDKDVKIEPCGHLMCTSCLTAWQESDGQGCPFCRCEIKGTEPIIVDPFDPRDEGSRCCSIIDPFGMPMLDLDDDDDREESLMMNRLANVRKCTDRQNSPVTSPGSSPLAQRRKPQPDPLQIPHLSLPPVPPRLDLIQKGIVRSPCGSPTGSPKSSPCMVRKQDKPLPAPPPPLRDPPPPPPERPPPIPPDNRLSRHIHHVESVPSRDPPMPLEAWCPRDVFGTNQLVGCRLLGEGSPKPGITASSNVNGRHSRVGSDPVLMRKHRRHDLPLEGAKVFSNGHLGSEEYDVPPRLSPPPPVTTLLPSIKCTGPLANSLSEKTRDPVEEDDDEYKIPSSHPVSLNSQPSHCHNVKPPVRSCDNGHCMLNGTHGPSSEKKSNIPDLSIYLKGDVFDSASDPVPLPPARPPTRDNPKHGSSLNRTPSDYDLLIPPLGEDAFDALPPSLPPPPPPARHSLIEHSKPPGSSSRPSSGQDLFLLPSDPFVDLASGQVPLPPARRLPGENVKTNRTSQDYDQLPSCSDGSQAPARPPKPRPRRTAPEIHHRKPHGPEAALENVDAKIAKLMGEGYAFEEVKRALEIAQNNVEVARSILREFAFPPPVSPRLNL
B2: Angiomotin (Homo sapiens), Q4VCS5 (parent)
chain: MRNSEEQPSGGTTVLQRLLQEQLRYGNPSENRSLLAIHQQATGNGPPFPSGSGNPGPQSDVLSPQDHHQQLVAHAARQEPQGQEIQSENLIMEKQLSPRMQNNEELPTYEEAKVQSQYFRGQQHASVGAAFYVTGVTNQKMRTEGRPSVQRLNPGKMHQDEGLRDLKQGHVRSLSERLMQMSLATSGVKAHPPVTSAPLSPPQPNDLYKNPTSSSEFYKAQGPLPNQHSLKGMEHRGPPPEYPFKGMPPQSVVCKPQEPGHFYSEHRLNQPGRTEGQLMRYQHPPEYGAARPAQDISLPLSARNSQPHSPTSSLTSGGSLPLLQSPPSTRLSPARHPLVPNQGDHSAHLPRPQQHFLPNQAHQGDHYRLSQPGLSQQQQQQQQQHHHHHHHQQQQQQQPQQQPGEAYSAMPRAQPSSASYQPVPADPFAIVSRAQQMVEILSDENRNLRQELEGCYEKVARLQKVETEIQRVSEAYENLVKSSSKREALEKAMRNKLEGEIRRMHDFNRDLRERLETANKQLAEKEYEGSEDTRKTISQLFAKNKESQREKEKLEAELATARSTNEDQRRHIEIRDQALSNAQAKVVKLEEELKKKQVYVDKVEKMQQALVQLQAACEKREQLEHRLRTRLERELESLRIQQRQGNCQPTNVSEYNAAALMELLREKEERILALEADMTKWEQKYLEENVMRHFALDAAATVAAQRDTTVISHSPNTSYDTALEARIQKEEEEILMANKRCLDMEGRIKTLHAQIIEKDAMIKVLQQRSRKEPSKTEQLSCMRPAKSLMSISNAGSGLLSHSSTLTGSPIMEEKRDDKSWKGSLGILLGGDYRAEYVPSTPSPVPPSTPLLSAHSKTGSRDCSTQTERGTESNKTAAVAPISVPAPVAAAATAAAITATAATITTTMVAAAPVAVAAAAAPAAAAAPSPATAAATAAAVSPAAAGQIPAAASVASAAAVAPSAAAAAAVQVAPAAPAPVPAPALVPVPAPAAAQASAPAQTQAPTSAPAVAPTPAPTPTPAVAQAEVPASPATGPGPHRLSIPSLTCNPDKTDGPVFHSNTLERKTPIQILGQEPDAEMVEYLI
B3: Membrane protein FAM174A (Homo sapiens), Q8TBP5 (parent)
chain: MKASQCCCCLSHLLASVLLLLLLPELSGPLAVLLQAAEAAPGLGPPDPRPRTLPPLPPGPTPAQQPGRGLAEAAGPRGSEGGNGSNPVAGLETDDHGGKAGEGSVGGGLAVSPNPGDKPMTQRALTVLMVVSGAVLVYFVVRTVRMRRRNRKTRRYGVLDTNIENMELTPLEQDDEDDDNTLFDANHPRR
partner: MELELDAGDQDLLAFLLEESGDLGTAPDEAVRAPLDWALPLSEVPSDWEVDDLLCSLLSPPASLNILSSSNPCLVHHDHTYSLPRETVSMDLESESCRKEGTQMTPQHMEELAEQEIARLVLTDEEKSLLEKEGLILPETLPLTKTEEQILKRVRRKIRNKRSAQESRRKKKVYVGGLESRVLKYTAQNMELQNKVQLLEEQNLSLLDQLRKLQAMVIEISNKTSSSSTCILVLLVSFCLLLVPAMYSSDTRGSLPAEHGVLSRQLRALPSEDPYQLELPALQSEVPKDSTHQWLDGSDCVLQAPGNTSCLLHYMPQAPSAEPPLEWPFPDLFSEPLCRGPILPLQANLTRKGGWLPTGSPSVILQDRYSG
B4: Cysteine-rich C-terminal protein 1 (Homo sapiens), Q9UGL9 (parent)
chain: MSSQQSAVSAKGFSKGSSQGPAPCPAPAPTPAPASSSSCCGSGRGCCGDSGCCGSSSTSCCCFPRRRRRQRSSGCCCCGGGSQRSQRSNNRSSGCCSGC
partner: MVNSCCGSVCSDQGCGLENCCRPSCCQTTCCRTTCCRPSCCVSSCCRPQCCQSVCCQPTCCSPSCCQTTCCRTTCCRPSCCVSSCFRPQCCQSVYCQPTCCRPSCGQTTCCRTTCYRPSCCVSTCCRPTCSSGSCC
B5: Lipopolysaccharide-induced tumor necrosis factor-alpha factor (Homo sapiens), Q99732 (parent)
chain: MSVPGPYQAATGPSSAPSAPPSYEETVAVNSYYPTPPAPMPGPTTGLVTGPDGKGMNPPSYYTQPAPIPNNNPITVQTVYVQHPITFLDRPIQMCCPSCNKMIVSQLSYNAGALTWLSCGSLCLLGCIAGCCFIPFCVDALQDVDHYCPNCRALLGTYKRL
B6: Dynein light chain 2, cytoplasmic (Homo sapiens), Q96FJ2 (parent)
chain: MSDRKAVIKNADMSEDMQQDAVDCATQAMEKYNIEKDIAAYIKKEFDKKYNPTWHCIVGRNFGSYVTHETKHFIYFYLGQVAILLFKSG
partner: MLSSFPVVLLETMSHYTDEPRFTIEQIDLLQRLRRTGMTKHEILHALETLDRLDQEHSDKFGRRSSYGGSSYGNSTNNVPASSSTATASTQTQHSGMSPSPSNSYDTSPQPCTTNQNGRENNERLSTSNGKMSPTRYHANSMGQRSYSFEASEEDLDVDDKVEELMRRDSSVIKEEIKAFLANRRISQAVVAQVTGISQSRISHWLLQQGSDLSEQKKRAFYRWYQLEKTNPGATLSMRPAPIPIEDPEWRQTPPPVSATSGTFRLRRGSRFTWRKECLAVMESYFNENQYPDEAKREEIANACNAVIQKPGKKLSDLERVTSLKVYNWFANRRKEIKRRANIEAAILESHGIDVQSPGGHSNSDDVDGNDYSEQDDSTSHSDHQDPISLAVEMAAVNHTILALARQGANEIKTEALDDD

Variants of: B1
Conditions: with gors2_human GORASP2, Q9H8Y8

| Variant | effect of a mutation on the interaction |
| --- | --- |
| S622T | with no effect |

Variants of: B2
Conditions: with maga4_human MAGEA4, P43358
maga4_human MAGEA4, P43358, sequence (P43358 whole entry): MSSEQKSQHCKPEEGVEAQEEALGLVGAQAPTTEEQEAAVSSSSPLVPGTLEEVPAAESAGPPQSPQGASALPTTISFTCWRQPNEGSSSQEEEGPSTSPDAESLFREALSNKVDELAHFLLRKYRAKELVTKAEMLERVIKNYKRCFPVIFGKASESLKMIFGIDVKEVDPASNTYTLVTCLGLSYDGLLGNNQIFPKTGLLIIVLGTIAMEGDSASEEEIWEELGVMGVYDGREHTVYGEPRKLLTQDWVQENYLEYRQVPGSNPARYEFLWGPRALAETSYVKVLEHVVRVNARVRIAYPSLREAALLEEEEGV

| Variant | effect of a mutation on the interaction |
| --- | --- |
| T899A | with no effect |

Variants of: B2
Conditions: with UNC119, Q13432

| Variant | effect of a mutation on the interaction |
| --- | --- |
| A556V | with no effect |

Variants of: B2
Conditions: with KRT15, P19012
KRT15, P19012, sequence (P19012 whole entry): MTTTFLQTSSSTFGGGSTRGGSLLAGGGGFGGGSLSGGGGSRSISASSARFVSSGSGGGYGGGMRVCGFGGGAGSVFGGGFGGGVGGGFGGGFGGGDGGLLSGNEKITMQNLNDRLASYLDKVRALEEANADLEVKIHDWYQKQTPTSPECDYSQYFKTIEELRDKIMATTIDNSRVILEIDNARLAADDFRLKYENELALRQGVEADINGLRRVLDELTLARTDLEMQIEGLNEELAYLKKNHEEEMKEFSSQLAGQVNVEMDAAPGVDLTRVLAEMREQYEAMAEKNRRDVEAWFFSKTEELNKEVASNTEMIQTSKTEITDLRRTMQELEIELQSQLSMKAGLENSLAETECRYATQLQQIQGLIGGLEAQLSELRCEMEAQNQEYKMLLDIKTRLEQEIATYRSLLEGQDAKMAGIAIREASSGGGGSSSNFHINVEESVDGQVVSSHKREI

| Variant | effect of a mutation on the interaction |
| --- | --- |
| A556V | with no effect |

Variants of: B3
Conditions: with creb3_human CREB3, O43889

| Variant | effect of a mutation on the interaction |
| --- | --- |
| D95G | with no effect |

Variants of: B4
Conditions: with kra42_human KRTAP4-2, Q9BYR5

| Variant | effect of a mutation on the interaction |
| --- | --- |
| G20S | with no effect |

Variants of: B5
Conditions: with bag3_human BAG3, O95817
bag3_human BAG3, O95817, sequence (O95817 whole entry): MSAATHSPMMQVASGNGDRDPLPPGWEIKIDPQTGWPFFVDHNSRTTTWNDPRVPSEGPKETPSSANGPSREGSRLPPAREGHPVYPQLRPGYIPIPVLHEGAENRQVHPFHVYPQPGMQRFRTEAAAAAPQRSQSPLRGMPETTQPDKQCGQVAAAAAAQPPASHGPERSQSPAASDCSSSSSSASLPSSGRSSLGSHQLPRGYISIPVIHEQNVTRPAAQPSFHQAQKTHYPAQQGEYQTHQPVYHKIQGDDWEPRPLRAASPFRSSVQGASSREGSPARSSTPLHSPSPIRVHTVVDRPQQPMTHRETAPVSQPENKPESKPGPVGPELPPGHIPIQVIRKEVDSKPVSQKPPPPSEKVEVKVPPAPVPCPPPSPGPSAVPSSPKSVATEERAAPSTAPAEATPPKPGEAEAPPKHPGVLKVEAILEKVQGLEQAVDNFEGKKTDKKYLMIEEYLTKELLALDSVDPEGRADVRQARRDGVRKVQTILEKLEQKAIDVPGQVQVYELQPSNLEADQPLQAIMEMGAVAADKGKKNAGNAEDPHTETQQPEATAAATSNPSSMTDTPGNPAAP

| Variant | effect of a mutation on the interaction |
| --- | --- |
| I92V | with no effect |
| C137Y | with no effect |

Variants of: B5
Conditions: with reep6_human REEP6, Q96HR9
reep6_human REEP6, Q96HR9, sequence (Q96HR9 whole entry): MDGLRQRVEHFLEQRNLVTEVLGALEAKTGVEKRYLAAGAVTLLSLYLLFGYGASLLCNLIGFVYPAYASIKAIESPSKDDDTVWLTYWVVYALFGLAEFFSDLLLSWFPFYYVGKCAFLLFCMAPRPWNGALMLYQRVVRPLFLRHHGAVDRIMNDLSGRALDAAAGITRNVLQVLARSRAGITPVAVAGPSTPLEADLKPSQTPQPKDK

| Variant | effect of a mutation on the interaction |
| --- | --- |
| C137Y | disrupting interaction strength |

Variants of: B5
Conditions: with stam2_human STAM2, O75886

| Variant | effect of a mutation on the interaction |
| --- | --- |
| C137Y | with no effect |

Variants of: B5
Conditions: with hgs_human HGS

| Variant | effect of a mutation on the interaction |
| --- | --- |
| C137Y | with no effect |

Variants of: B6
Conditions: with hmbx1_human HMBOX1, Q6NT76

| Variant | effect of a mutation on the interaction |
| --- | --- |
| E30D | with no effect |
